Data on 1 substance can be found in article PMC7597677.

The test concerns the target cGMP phosphodiesterase 6 (PDE6) hetero-tetramer, native bovine (bovine) (UniProt P11541). Put plainly: cryo-EM structure.
Sequence of UniProt P11541 (P11541 whole entry, chain 1 of 3): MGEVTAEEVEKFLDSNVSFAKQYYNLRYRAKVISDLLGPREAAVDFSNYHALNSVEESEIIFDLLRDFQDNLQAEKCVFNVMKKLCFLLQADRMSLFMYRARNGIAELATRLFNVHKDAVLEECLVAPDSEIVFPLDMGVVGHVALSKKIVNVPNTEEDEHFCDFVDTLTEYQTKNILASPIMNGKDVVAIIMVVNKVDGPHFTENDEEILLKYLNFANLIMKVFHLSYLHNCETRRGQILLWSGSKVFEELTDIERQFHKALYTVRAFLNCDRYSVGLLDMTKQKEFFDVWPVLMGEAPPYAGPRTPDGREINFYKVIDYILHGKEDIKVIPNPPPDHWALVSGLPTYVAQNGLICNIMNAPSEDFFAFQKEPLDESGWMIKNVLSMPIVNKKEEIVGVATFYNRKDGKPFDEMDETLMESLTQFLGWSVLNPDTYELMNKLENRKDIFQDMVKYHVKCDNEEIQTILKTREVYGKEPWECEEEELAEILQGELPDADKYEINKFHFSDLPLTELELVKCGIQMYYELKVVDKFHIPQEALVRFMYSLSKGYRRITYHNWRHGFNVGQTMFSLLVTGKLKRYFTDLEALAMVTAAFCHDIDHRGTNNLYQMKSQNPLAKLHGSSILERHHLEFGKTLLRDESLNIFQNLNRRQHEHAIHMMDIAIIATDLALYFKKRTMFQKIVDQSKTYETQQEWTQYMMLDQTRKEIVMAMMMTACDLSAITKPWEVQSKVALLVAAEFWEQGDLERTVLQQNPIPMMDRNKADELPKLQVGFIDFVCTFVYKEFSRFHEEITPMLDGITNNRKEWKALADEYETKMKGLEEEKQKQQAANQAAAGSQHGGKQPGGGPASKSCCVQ
Sequence of UniProt P11541 (P23439 whole entry, chain 2 of 3, further chain): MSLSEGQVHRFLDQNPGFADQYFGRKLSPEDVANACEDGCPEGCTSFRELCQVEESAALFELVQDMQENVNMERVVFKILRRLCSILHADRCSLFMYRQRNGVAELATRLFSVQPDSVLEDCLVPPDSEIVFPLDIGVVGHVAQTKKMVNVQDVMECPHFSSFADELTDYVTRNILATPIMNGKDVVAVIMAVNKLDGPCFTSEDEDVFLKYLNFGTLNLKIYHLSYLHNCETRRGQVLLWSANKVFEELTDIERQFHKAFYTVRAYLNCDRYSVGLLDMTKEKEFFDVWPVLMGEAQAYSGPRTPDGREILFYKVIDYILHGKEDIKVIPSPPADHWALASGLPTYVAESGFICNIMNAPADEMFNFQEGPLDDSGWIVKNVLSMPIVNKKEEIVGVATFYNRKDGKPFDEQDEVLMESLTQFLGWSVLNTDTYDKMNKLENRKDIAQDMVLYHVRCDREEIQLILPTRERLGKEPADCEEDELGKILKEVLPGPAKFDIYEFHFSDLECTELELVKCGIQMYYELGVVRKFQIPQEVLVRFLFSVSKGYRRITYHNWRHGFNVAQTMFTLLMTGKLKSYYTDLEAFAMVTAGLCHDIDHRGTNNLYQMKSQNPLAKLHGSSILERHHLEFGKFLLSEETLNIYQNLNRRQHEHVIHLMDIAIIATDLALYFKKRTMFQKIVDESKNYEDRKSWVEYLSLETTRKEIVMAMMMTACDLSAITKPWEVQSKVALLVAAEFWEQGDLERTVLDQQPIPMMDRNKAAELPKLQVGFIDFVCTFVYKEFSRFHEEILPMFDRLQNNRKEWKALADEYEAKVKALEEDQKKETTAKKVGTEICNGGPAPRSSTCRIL
Sequence of UniProt P11541 (P04972 whole entry, chain 3 of 3, further chain): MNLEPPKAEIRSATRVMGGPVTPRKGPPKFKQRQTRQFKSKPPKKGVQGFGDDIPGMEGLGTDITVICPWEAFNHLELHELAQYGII

As to “1D4-tagged recombinant GαT subunit (R174C, Q200L), GTP-bound (from UniProt P04695 1-350) (natural protein)”, the stoichiometry N (GαT·GTP per PDE6 hetero-tetramer) was determined as 2.
